Where two headings read alike, the source gives them in different places.

For data set [1], the target named is MOP7 (HIF3alpha)/human ARNT heterodimer (Mus musculus, UniProt Q0VBL6;P27540 Q0VBL6:1-662,P27540:1-789). The data set can be described thus: EMSA; abolished by anti-ARNT. The settings on record: label: 32P. As for the experimental part:
Gel-shift assay. To generate a double strand oligonucleotide probe containing the core HRE element, 50 ng of oligonucleotide OL414 was end-labeled with [γ-³²P]ATP and was annealed with 10 fold excess of cold complementary oligonucleotide OL415. […] For expression of the bHLH-PAS proteins, mMOP7 (PL1025) and hARNT (PL87) were synthesized in a reticulocyte lysate in the presence of [³⁵S]methionine. The amount of each protein synthesized was calculated by measuring radioactivity and estimated to be approximately 1 fmol in each 10 μl gel-shift reaction. Each gel-shift assay was performed with 100,000 cpm of oligonucleotide probe per 10 μl reaction. To confirm complex identity, 1 μl of anti-ARNT sera was used to supershift the DNA bound protein complex.
As a biochemical proof that MOP7 was a bona fide α-class HIF, we performed gel-shift and transient transfection analyses. Because HIF1α and HIF2α are known to pair with the β-class HIF subunit ARNT, we predicted that MOP7 would also pair with ARNT. Based upon sequence identity in their basic regions, we also predicted that a MOP7-ARNT would bind the HRE core sequence, TACGTG. […] First, the MOP7-ARNT-HRE complex was abolished by anti-ARNT IgGs but not by preimmune antibodies. Second, the complex was blocked by an excess of HRE containing oligonucleotide but not by oligonucleotides with a single mutation within the core HRE sequence. […]

Data set [2] addresses T1, MOP1 (HIF1alpha) (Homo sapiens, UniProt Q16665 SEQ:1-826). In words: EMSA; MOP1 alone. The following applies: label: 32P. In general terms: A gel shift assay detects complexes by their altered migration in electrophoresis.
The target of another data set is ARNT (Homo sapiens, UniProt P27540 P27540:1-789). The data set can be described thus: EMSA; ARNT alone. The settings on record: label: 32P.
Another data set addresses MOP1 (HIF1alpha)/AHR (UniProt Q16665;P35869 Q16665:1-826,P35869:1-848). The data set can be described thus: EMSA; no complex with any bHLH-PAS family response element.
The target of data set [3] is T2, MOP1 (HIF1alpha)/ARNT heterodimer (Homo sapiens, UniProt Q16665;P27540 Q16665:1-826,P27540:1-789). In words: EMSA; oligo assignment by core; supershifted by antisera. The following applies: label: 32P.
The target of data set [4] is MOP2 (HIF2alpha)/ARNT heterodimer (Homo sapiens, UniProt Q99814;P27540 Q99814:1-870,P27540:1-789). The data set can be described thus: EMSA; approximately equal to MOP1-ARNT; supershifted by antisera. The following applies: label: 32P.
In data set [5] the target is T2, MOP1 (HIF1alpha)/ARNT heterodimer. The data set can be described thus: EMSA.
Data set [6] has the same target. In words: EMSA; higher affinity than MOP1 or ARNT alone.
For data set [7], the target named is T1, MOP1 (HIF1alpha). The data set can be described thus: EMSA; HIF1alpha alone.
The target of data set [8] is ARNT/HIF2alpha (transfected) (Homo sapiens, UniProt P27540;Q99814 P27540:1-789,Q99814:1-870). In words: cell_activity; COS-1 luciferase. As to the method:
(§1) Cell Culture and Transient Transfection. Transient transfections of COS-1 cells were performed by the Lipofectamine protocol (GIBCO) as described in Example 1. To mimic hypoxia, 100 μM of cobalt chloride was included in the cell growth media and incubated at 37° C. until harvest. To monitor the transcriptional activity of the MOP3-MOP4 or MOP3-CLOCK heterodimers, a synthetic reporter was constructed by annealing phosphorylated oligonucleotides OL1116 and OL1117 and cloning them into the BglII site in the reporter plasmid pGL3p (Promega). To measure the transcriptional activity of the MOP3-HIF1α or MOP3-HIF2α heterodimers, a synthetic reporter was constructed by annealing phosphorylated oligonucleotides OL1155 and OL1156 and then cloning them as above. Luciferase levels were reported in relation to β-galactosidase activity as described in Example 1.
(§2) To determine if MOP3 formed a transcriptionally active complex with either HIF1α or HIF2α in vivo, we constructed a synthetic reporter using six copies of the M13 element described above. […] Like ARNT, upon exposure of these transfected cells to cobalt chloride to simulate cellular hypoxia, MOP3 interacted and drove transcription in complexes with both HIF1α and with HIF2α.

Data set [9] deals with ARNT/HIF1alpha (transfected) (Homo sapiens, UniProt P27540;Q16665 P27540:1-789,Q16665:1-826). In words: cell_activity; COS-1 luciferase. As for the experimental part:
as §1, §2

T2 sequence (Q16665 whole entry, chain 1 of 2): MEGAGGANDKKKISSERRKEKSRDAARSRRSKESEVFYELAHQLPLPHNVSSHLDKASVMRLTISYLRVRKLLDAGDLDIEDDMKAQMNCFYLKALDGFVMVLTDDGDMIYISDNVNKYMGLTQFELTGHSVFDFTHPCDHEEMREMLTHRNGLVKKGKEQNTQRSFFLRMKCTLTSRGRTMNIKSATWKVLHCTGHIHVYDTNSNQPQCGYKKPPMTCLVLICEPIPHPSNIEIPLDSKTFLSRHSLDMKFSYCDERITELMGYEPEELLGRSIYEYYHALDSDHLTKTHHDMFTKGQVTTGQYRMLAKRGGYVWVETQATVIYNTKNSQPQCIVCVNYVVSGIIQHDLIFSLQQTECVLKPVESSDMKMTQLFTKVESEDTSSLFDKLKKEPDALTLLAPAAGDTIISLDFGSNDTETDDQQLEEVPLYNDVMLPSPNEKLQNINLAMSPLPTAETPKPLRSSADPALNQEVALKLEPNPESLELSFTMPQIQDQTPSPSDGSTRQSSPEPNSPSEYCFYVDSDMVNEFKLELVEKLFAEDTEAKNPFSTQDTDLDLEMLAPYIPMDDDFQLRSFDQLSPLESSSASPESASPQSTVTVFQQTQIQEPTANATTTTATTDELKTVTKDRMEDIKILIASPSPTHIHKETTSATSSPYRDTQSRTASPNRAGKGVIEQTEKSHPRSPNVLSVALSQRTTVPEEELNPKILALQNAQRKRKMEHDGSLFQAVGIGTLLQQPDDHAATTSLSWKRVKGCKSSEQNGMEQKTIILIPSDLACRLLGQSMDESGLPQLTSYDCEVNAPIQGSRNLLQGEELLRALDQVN
T2 sequence (P27540 whole entry, chain 2 of 2): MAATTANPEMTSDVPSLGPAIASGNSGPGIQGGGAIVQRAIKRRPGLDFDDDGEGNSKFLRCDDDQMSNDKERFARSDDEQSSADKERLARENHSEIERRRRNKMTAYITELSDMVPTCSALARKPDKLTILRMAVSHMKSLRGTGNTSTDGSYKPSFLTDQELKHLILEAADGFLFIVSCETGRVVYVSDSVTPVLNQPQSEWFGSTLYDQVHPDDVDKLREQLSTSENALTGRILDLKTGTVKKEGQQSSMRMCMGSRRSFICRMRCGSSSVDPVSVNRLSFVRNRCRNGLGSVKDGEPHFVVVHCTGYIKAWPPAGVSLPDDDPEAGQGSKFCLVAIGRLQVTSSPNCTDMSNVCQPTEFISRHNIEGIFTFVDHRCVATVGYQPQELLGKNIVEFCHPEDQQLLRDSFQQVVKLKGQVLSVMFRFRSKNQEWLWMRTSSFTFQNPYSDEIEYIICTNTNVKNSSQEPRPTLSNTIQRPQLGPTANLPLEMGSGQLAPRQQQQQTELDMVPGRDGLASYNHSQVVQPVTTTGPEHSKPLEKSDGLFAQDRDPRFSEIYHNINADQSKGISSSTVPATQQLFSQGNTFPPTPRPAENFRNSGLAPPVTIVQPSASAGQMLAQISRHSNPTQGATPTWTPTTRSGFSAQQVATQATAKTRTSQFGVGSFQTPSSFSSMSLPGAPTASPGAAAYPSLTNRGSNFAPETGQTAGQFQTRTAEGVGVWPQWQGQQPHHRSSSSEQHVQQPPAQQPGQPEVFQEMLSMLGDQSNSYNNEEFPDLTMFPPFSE
MOP1 (HIF1alpha)/AHR, sequence (Q16665 whole entry, chain 1 of 2): as the sequence (Q16665 whole entry, chain 1 of 2) above
MOP1 (HIF1alpha)/AHR, sequence (P35869 whole entry, chain 2 of 2): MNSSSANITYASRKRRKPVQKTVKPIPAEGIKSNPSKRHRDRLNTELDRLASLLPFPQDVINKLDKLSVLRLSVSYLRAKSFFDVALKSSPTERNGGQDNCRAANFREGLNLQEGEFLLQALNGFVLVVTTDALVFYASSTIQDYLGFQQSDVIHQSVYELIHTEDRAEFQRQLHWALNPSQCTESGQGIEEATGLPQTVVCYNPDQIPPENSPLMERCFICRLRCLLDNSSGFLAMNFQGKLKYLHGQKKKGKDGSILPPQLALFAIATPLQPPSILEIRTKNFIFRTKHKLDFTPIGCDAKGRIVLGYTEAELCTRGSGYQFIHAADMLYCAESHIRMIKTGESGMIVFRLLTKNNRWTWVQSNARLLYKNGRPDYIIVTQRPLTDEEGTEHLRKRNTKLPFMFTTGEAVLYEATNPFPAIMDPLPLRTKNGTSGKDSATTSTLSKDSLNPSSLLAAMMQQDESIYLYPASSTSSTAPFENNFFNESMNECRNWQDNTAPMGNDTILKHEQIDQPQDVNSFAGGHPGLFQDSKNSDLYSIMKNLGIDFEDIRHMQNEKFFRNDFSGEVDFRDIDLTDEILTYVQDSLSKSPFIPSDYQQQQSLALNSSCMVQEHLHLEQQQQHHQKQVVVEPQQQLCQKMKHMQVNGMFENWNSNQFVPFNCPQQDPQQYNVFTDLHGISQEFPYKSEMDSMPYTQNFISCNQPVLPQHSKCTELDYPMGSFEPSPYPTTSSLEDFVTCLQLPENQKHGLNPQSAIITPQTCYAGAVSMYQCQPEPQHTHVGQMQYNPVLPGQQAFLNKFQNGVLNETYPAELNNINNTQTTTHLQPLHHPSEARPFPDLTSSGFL
T1 sequence (Q16665 whole entry): as the sequence (Q16665 whole entry, chain 1 of 2) above
ARNT, sequence (P27540 whole entry, one chain of several): as the sequence (P27540 whole entry, chain 2 of 2) above

B1: OL414/OL415 TACGTG (HRE) (dsDNA)
DNA 1: TCGAGCTGGGCAGGGTACGTGGCAAGGC
DNA 2: TCGAGCCTTGCCACGTACCCTGCCCAGC
Consider B1, for which the binding result in [1] is on record as “binds”; in the data set with MOP1 (HIF1alpha) [2], “no binding”; with ARNT, “no binding”; in the data set with MOP1 (HIF1alpha)/AHR (label: 32P), “no binding”; in data set [3] it was “binds”; in [4], “binds”.

B2: OL443/OL444 GTGCGTG (SAE) (dsDNA)
DNA 1: TCGAGCTGGGCAGGGTGCGTGGCAAGGC
DNA 2: TCGAGCCTTGCCACGCACCCTGCCCAGC
As for B2, the binding result (in the data set with MOP1 (HIF1alpha)/AHR; in data set [5]) was “no binding” throughout.

B3: OL445/OL446 CACGTG E-box (dsDNA)
DNA 1: TCGAGCTGGGCAGGTCACGTGGCAAGGC
DNA 2: TCGAGCCTTGCCACGTGACCTGCCCAGC
Take B3: the binding result was “no binding” in the data set with MOP1 (HIF1alpha)/AHR and “binds” in data set [6].

B4: M13 element (dsDNA)
DNA 1: GCCCTACGTGACCC
DNA 2: GGGTCACGTAGGGC
For the molecule B4, in the data set with MOP1 (HIF1alpha) [7], the binding result is reported as “no binding”.

B5: M13 reporter insert OL1155 (reporter carries six M13 copies) (dsDNA)
DNA 1: GATCGGATACGTGACCATTGGTTACGTGTCCATTGGATACGTGACC
DNA 2: GGTCACGTATCCAATGGACACGTAACCAATGGTCACGTATCCGATC
Turning to B5, the results for the activity in data set [8] and in data set [9] were 8.1 fold and 14.1 fold, respectively.

B6: OL447/OL448 TTGCGTG (DRE) (dsDNA)
DNA 1: TCGAGCTGGGCAGGTTGCGTGGCAAGGC
DNA 2: TCGAGCCTTGCCACGCAACCTGCCCAGC
In the case of B6, the binding result (in the data set with MOP1 (HIF1alpha)/AHR; in data set [5]) was “no binding” each time.
